According to patent publication US6410319:

Molecular target: T1, CD20 (human) (UniProt P11836)
T1 sequence (looked up): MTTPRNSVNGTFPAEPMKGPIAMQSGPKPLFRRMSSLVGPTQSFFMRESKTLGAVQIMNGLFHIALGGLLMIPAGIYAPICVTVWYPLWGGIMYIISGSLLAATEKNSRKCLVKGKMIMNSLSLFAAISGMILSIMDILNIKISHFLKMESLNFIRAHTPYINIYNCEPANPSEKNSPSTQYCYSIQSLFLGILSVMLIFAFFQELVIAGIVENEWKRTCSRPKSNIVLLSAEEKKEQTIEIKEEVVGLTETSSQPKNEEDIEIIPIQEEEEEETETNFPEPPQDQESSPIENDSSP
Assay: cell-based or functional assay

B1: anti-CD20 Leu-16 monoclonal antibody (antibody, from another filing, V domains shown)
VH: EVQLQQSGAELVKPGASVKMSCKASGYTFTSYNMHWVKQTPGQGLEWIGAIYPGNGDTSYNQKFKGKATLTADKSSSTAYMQLSSLTSEDSADYYCARSNYYGSSYWFFDVWGAGTTVTVSS
VL: DIVLTQSPAILSASPGEKVTMTCRASSSVNYMDWYQKKPGSSPKPWIYATSNLASGVPARFSGSGSGTSYSLTISRVEAEDAATYYCQQWSFNPPTFGGGTKLEIK
B1 gave a decrease of IL-2 concentration in supernatants of Jurkat transfectants co-cultured with LCL of 60%.
